Test results reported in IntAct's records for PubMed 34591612.

Neurabin-2 (Homo sapiens), Q96SB3 F451A, sequence (Q96SB3 whole entry F451A): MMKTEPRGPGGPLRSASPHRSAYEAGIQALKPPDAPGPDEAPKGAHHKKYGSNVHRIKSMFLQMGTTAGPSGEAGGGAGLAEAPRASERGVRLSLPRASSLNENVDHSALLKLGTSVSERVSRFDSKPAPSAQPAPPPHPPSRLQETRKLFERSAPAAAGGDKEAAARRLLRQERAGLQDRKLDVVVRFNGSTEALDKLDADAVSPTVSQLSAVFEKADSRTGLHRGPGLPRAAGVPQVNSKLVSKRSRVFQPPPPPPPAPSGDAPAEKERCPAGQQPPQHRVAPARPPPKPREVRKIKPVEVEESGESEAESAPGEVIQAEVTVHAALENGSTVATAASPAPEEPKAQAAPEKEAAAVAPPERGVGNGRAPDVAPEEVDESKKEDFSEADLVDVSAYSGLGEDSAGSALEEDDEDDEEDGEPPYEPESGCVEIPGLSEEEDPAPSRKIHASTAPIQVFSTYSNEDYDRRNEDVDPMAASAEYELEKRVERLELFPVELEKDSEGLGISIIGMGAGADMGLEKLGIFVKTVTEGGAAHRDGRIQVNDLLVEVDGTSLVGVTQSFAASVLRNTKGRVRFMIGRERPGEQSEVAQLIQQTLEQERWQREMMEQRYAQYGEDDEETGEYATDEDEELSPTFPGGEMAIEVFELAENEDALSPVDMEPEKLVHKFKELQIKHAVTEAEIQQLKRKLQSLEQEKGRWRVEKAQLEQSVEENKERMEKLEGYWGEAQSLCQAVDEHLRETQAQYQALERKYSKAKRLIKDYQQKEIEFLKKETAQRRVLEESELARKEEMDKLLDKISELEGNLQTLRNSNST

Each substance was assayed against brca1_human BRCA1 (UniProt P38398).
brca1_human BRCA1, sequence (P38398 whole entry, looked up): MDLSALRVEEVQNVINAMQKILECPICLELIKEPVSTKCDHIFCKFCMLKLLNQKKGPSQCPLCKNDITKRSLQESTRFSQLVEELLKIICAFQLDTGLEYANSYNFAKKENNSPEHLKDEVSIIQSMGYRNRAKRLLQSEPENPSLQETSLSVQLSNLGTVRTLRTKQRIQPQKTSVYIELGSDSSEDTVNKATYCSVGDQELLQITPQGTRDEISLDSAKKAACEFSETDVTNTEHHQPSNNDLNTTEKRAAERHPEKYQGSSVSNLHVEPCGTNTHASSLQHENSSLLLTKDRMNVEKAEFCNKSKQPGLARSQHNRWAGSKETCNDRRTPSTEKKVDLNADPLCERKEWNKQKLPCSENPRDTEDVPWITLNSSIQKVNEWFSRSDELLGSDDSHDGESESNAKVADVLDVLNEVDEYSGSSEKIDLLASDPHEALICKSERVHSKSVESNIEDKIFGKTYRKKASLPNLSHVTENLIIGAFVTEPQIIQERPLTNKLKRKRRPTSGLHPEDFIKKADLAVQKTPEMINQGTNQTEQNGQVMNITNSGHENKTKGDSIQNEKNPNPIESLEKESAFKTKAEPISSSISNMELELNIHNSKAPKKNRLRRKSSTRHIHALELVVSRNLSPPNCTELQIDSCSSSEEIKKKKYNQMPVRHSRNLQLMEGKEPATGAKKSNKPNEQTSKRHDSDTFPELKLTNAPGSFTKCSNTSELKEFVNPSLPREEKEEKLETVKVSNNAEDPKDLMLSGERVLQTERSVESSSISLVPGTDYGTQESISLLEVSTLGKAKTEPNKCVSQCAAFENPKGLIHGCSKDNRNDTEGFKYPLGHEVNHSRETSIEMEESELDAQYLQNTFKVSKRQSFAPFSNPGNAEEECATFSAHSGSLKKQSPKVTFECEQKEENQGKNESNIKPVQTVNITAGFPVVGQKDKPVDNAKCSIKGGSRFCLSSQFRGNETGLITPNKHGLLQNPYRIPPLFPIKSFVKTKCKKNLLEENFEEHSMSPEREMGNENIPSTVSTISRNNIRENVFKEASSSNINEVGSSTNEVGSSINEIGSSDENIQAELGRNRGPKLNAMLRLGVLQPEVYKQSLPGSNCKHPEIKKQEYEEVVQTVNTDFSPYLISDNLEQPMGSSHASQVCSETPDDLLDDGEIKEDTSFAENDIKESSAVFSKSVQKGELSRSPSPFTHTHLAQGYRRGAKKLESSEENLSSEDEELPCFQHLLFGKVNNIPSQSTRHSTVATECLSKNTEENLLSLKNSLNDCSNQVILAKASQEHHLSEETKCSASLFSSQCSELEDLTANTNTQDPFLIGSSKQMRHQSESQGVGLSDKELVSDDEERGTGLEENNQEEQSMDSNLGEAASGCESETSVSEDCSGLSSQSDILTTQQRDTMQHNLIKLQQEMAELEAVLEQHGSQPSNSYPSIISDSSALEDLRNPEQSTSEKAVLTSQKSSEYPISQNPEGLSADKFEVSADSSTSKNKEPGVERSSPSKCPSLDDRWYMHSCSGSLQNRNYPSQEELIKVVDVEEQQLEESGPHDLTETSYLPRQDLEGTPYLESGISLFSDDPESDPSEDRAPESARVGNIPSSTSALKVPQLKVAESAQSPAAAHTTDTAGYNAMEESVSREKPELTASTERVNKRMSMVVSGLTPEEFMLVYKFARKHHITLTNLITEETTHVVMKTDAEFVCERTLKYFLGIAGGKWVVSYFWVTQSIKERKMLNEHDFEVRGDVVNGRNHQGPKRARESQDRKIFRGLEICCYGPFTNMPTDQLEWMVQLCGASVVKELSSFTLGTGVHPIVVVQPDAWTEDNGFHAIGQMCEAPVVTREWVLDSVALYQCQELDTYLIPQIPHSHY
With Neurabin-2 (Homo sapiens), Q96SB3 S212A the “effect of a mutation on the interaction” value was “decreasing interaction”. Neurabin-2 (Homo sapiens), Q96SB3 S248A was tested, and the “effect of a mutation on the interaction” value was “increasing interaction”. With Neurabin-2 (Homo sapiens), Q96SB3 F451A the “effect of a mutation on the interaction” value was “increasing interaction”. In the case of Neurabin-2 (Homo sapiens), Q96SB3 S635A, the “effect of a mutation on the interaction” value was “disrupting interaction”.
